According to the supplement of paper PMC10201428:
± gives the standard deviation of the averaged measurements.

Experiments:
[1] = tested on: VchCAST RNA-guided transposition machinery (E. coli BL21(DE3) host, lacZ target); test: relative integration efficiency (T-LR orientation) vs wild-type transposon end (log2 (normalized fold change)); transposon end mutated: left end; higher = more efficient transposition
Summary of the method: (§1)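 Each barcoded pool, 1549 left-end or 1849 right-end transposon variants in a pUC57 mini-transposon donor, went into E. coli BL21(DE3) with a T7-driven effector plasmid (CRISPR array, tniQ-cas8-cas7-cas6, tnsA-tnsB-tnsC). Plates contained 0.1 mM IPTG and were held at 37°C for 18 h. Input plasmids and genomic integration junctions were PCR-amplified and read by Illumina sequencing, with two biological output replicates and four reference barcodes. Relative integration efficiency is the fold change of output over input barcode abundance, normalised to the reference barcodes and log-transformed.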

[2] = tested on: VchCAST RNA-guided transposition machinery (E. coli BL21(DE3) host, lacZ target); test: relative integration efficiency (T-RL orientation) vs wild-type transposon end (log2 (normalized fold change)); transposon end mutated: left end; higher = more efficient transposition
Summary of the method: as §1

Sequence | relative integration efficiency (log2) [1] | relative integration efficiency (log2) [2]
AATGTTGTTGATGCAACCATATATTGATATCTCATAATTATTTATAATCAGCAACTTAACCACAAAACAACCATAAAATGATAATTAACAAAAGTTGGTATTCAACTATAAAATGTGAATCGAGTATTTCAGCAAAACTACTGCAGTAAGAA | -1.34 ± 1 | -3.2 ± 1.5
AATGTTGTTGATGCAACCATAAAGTGATATTTACAACCATATATTGATATCTCACAACAACCATAAGTTGATATTTTTGTGAATCGAGTATTTCAGCAAAACTACTGCAGTAAGAAAGTTACTTCGTGGTATGGGAGGATCAAGGAGCCAAT | 2.75 ± 0.92 | -2.68 ± 0.7
AATGTTGTTGATGCAACCATAAAGTGATATTTAATAATTATTTATAATCAGCAACTTAACCACAAAACAACCATATATTGATATCTCACAAAACAACCATAAGTTGATATTTGTGAATCGAGTATTTCAGCAAAACTACTGCAGTAAGAAAG | 0.0663 ± 0.15 | -0.116 ± 0.072
AATGTTGTTGATGCAACCATAAAGTGATATTTAATAACTTCGTATAAAGTATCCTATACGAAGTTATCAACCATATATTGATATCTCACAAAACAACCATAAGTTGATATTTTTGTGAATCGAGTATTTCAGCAAAACTACTGCAGTAAGAA | -2.99 ± 2.4 | -2.17 ± 0.99
AATGTTGTTGATCAACCATAAAGTGATATTTAATAATTATTTATAATCAGCAACTTAACCACAAAACAACCATATATTGATATCTCACAAAACAACCATAAGTTGATATTTTTGTGAATCGAGTATTTCAGCAAAACTACTGCAGTAAGAAA | < -10 | -6.905 ± 0.028
AATGTTGTTGATGCAACCATAAAGTGATATTTAATAATTATTTATAATCAGCAACTTAACCACAAAACAACCATATATTGATATCTCACAACCACCAACGCCTGGTCGCGGGGGTGTCCGATCTGATTTCAGCAAAACTACTGCAGTAAGAA | -0.813 ± 1.4 | -2.63 ± 0.74
AATGTTGTTGATGCAACCATAAAGTGATATTTAATAATTATTTCGAACTAGTTAACTAGTACGCAAACAACCATATATTGATATCTCACAAAACAACCATAAGTTGATATTTTTGTGAATCGAGTATTTCAGCAAAACTACTGCAGTAAGAA | < -10 | -4.69 ± 1.4
AATGTTGTTGATGTGTTCAACCATAAAGTGATATTTAATAATTATTTATAATCAGCAACTTAACCACAAAACAACCATATATTGATATCTCACAAAACAACCATAAGTTGATATTTTTGTGAATCGAGTATTTCAGCAAAACTACTGCAGTA | < -10 | -6.33 ± 0.89
AATGTTGTTGATGCAACCATAAAGTGATATTTAATAATTATTTATAATCAGCAACTTAACCACAAAACAACCAGCGCGGTCGCGAGACACCCCACCAACGCCTGGTCGCGGGGGTGTCCGATCTGATTTCAGCAAAACTACTGCAGTAAGAA | -5.07 ± 2.1 | -7.15 ± 1.6
AATGTTGTTGATGCAACCATAAAGTGATATTTAGACGTCCTTAACTCTGGCAGGGAGTTCAAGGGACCAACCATATATTGATATCTCACAAAACAACCATAAGTTGATATTTTTGTGAATCGAGTATTTCAGCAAAACTACTGCAGTAAGAA | -3.47 ± 2.7 | -2.69 ± 1.2
AATGTTGTTGATGCAACCATAAAGTGAGCGGGCATAATTATTTATAATCAGCAACTTAACCACAAAACAACCATATATTGAGCGAGAACAAAACAACCATAAGTTGAGCGGGGTGTGAATCGAGTATTTCAGCAAAACTACTGCAGTAAGAA | -4.11 ± 0.54 | -6.46 ± 1.3
AATGTTGTTGATGCAACCATAAAGTGATATTTAATAATTATTTATAATCAGCAACTTAACCACAAAACCCAACGCGCGGTCGCGAGACACCCCACCAACGCCTGGTCGCGGGGGTGTCCGATCTGATTTCAGCAAAACTACTGCAGTAAGAA | -2.9 ± 0.65 | -7.08 ± 1.4
AATGTTGTTGATGCAACCATAAGTTGATATTTTATAATTATTTATAATCAGCAACTTAACCACAAAACAACCATATATTGATATCTCACAAAAGTTGGTATTCAACTATAAAATGTGAATCGAGTATTTCAGCAAAACTACTGCAGTAAGAA | -1.32 ± 0.89 | -2.64 ± 1.1
AATGTTGTTGATGCAACCATAAAGTGATATTTAATAATTATTTATAATCAGCAACTTAACCACAAAACAACCCGCGCGGTCGCGAGACACCCCACCAACGCCTGGTCGCGGGGGTGTCCGATCTGATTTCAGCAAAACTACTGCAGTAAGAA | -4.43 ± 0.75 | -7.91 ± 1.9
